According to PMC4998004, “aPKC Inhibition by Par3 CR3 Flanking Regions Controls Substrate Access and Underpins Apical-Junctional Polarization” (Developmental Cell, 2016):
Numbering of substitutions follows the chain as printed. In names and notes the source's numbering stands. Blank lines part the entries; values can stand above or below the molecule they belong to. Residues, ends and D or L forms follow the SMILES beside them. No end group written: not given here.

What was measured:
Par6-PKCι-Cdc42 complex = assay: In vitro activity of activated Par complex (data not shown); format: biochemical
[1] = target: T1, PKCιKD-2P (primed human PKC-iota kinase domain) (Homo sapiens, UniProt P41743, C595S); assay: In vitro kinase assay (ADP Quest), peptide as substrate, Michaelis-Menten kinetics; format: biochemical; conditions: in vitro kinase assay
T1 construct: encoding residues 248–596 (GenBank: NM_002740.5); GST (followed by a 3C protease site) (N, cleaved yes); made in house; host or cells: Hi5 insect cells, baculovirus, co-infected with a PDK-1 virus
T1 sequence (P41743 248-596 C595S): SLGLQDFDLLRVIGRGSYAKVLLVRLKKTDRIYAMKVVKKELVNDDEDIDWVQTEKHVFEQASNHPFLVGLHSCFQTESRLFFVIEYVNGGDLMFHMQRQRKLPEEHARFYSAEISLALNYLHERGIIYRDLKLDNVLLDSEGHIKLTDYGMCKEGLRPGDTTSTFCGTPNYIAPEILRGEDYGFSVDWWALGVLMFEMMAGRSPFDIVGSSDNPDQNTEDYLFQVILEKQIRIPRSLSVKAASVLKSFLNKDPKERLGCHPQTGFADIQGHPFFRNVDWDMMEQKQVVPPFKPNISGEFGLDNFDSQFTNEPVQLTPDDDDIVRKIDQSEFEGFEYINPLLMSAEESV
Experimental: (§1) The ADP Quest kit (DiscoveRx) was used to determine the kcat app and KM app values for ATP against the PKCιKD-1P and PKCιKD-2P using a series of synthetic peptide substrates as described by [Kjaer et al. (2013)]. The reactions were measured every 2 min for 30 min in a 384-well plate using a Safire^2 plate reader (Tecan). The kinetic constants were determined by fitting the data to the Michaelis-Menten equation. Data are represented as mean ± SEM. Fluorescence anisotropy assays were performed to determine the KD for each peptide labeled with a fluorescein tag following standard protocols using a Safire^2 plate reader (Tecan). The anisotropy values were normalized and the KD was determined using non-linear regression. All experiments were performed in triplicate and for at least three independent protein preparations.
The ADP Quest kit (DiscoveRx) was used to determine the kcat app and Km app values for ATP against the PKCι KD-1P and PKCι KD-2P. The assay uses a coupled reaction to convert ADP to a product that has a fluorescence excitation at 530 nm and emission at 590 nm. Several synthetic peptide substrates were used including a model peptide […]
([…]) derived from a PKCε pseudo-substrate sequence with an alanine-serine change. We found this peptide to be an efficient substrate peptide for aPKC isozymes. Peptides from human Par3CR3 (residues 816-835) and F-X-R short […]
(§2) peptide ([…]) related to the Nishikawa and co-workers consensus were also used in the study (Nishikawa et al., 1997). For the kcat app and Km app reactions, the ATP concentration ranged from 0-200 µM, while the synthetic peptide substrates were kept constant at 200 µM to avoid product inhibition. The reactions were measured every two minutes for 30 minutes in a 384-well plate using a Safire 2 plate reader (Tecan). The kinetic constants were determined by fitting the data to Michaelis–Menten equation using the graphics program Prism (GraphPad Prism, version 5.0d, GraphPad Software). […]

[2] = target: T1, PKCιKD-2P (primed human PKC-iota kinase domain); assay: In vitro kinase assay (ADP Quest), inhibition of phosphorylation of a model substrate peptide; format: biochemical; conditions: Figures 1C, S5C
Experimental: as §1, with “All experiments were performed in triplicate and for at least three independent protein preparations.” left out
The ADP Quest kit (DiscoveRx) was used to determine the kcat app and Km app values for ATP against the PKCι KD-1P and PKCι KD-2P. The assay uses a coupled reaction to convert ADP to a product that has a fluorescence excitation at 530 nm and emission at 590 nm. […]
as §2, with “For the kcat app and Km app reactions, the ATP concentration ranged from 0-200 µM, while the synthetic peptide substrates were kept constant at 200 µM to avoid product inhibition.” left out

[3] = target: PKCι kinase domain, 248-596 (UniProt P41743); assay: fluorescence anisotropy, fluorescein-labelled peptide; conditions: reference: unphosphorylated Par3CR3 peptide; sites S827
[4] = target: T2, human PKC-iota kinase domain, partially primed low-activity form (PKCιKD-1P) (human, UniProt P41743 248-596, partially primed: one of the two priming sites pT412 and pT564 phosphorylated); assay: FP
T2 chain: T1 sequence (P41743 248-596 C595S) with S348C

[5] = target: T3, human PKC-iota kinase domain, primed active form (PKCιKD-2P) (human, UniProt P41743 248-596, phosphothreonine at 412 and 564 (pT412, pT564)); assay: FP
T3 chain: T1 sequence (P41743 248-596 C595S) with S348C

[6] = target: T4, human PKC-iota kinase domain, primed active form (PKCιKD-2P) (human, UniProt P41743 248-596, phosphothreonine at 412 and 564 (pT412, pT564)); assay: cell-based or functional assay
T4 sequence (looked up): T1 sequence (P41743 248-596 C595S) with S348C

[7] = target: T3, human PKC-iota kinase domain, primed …; assay: FP
[8] = target: T4, human PKC-iota kinase domain, primed …; assay: fluorescence polarisation; fluorescence anisotropy of fluorescein-labelled peptide with PKCι kinase domain; Safire2 plate reader; anisotropy normalised, KD by non-linear regression; triplicate, at least three independent protein preparations; conditions: both partners purified

Molecule: CSCC[C@H](NC(=O)[C@H](CO)NC(=O)[C@H](CCC(N)=O)NC(=O)[C@H](CCCNC(=N)N)NC(=O)CNC(=O)[C@H](Cc1ccccc1)NC(=O)CNC(=O)[C@H](CCC(=O)O)NC(=O)[C@H](CCCNC(=N)N)NC(=O)[C@H](CCC(N)=O)NC(=O)[C@H](Cc1ccccc1)NC(=O)[C@H](C)NC(=O)[C@@H](N)CC(C)C)C(=O)N[C@@H](CO)C(=O)N[C@@H](CCC(=O)O)C(=O)N[C@@H](CCCCN)C(=O)N[C@@H](CCCNC(=N)N)C(=O)N[C@H](C(=O)N[C@@H](CCCCN)C(=O)O)[C@@H](C)O [Par3CR3] (H-LAFQREGFGRQSMSEKRTK-OH; N-terminus and C-terminus assumed)
inhibition of activated Par complex (in words) (Par6-PKCι-Cdc42 complex): potently inhibited

Molecule: FKRQGSVRRR [F-X-Rshort peptide, artificial PKCι substrate resembling the aPKC consensus motif of Nishikawa et al]
phosphorylation as substrate by PKCι in vitro (in words) [1]: efficient PKCι substrate
inhibition of PKCι catalytic activity in vitro (in words) [2]: does not inhibit

Molecule: Kibra-derived peptide: Kibra-derived peptide (residues 919–978) with F-X-R motif anchor and K-R inhibitory motif (LRGSTIIRSKTFSPGPQSQYVCRLNRSDSDSSTLSKKPPFVRNSLERRSVRMKRPSSVKS)
inhibition of PKCι catalytic activity in vitro (in words) [2]: potently inhibit

B1: human Par3 conserved region 3 peptide, residues 816-834 (Par3CR3) (peptide, UniProt Q8TEW0 816-834, looked up)
peptide: LAFQREGFGRQSMSEKRTK
modifications: also: fluorescein label (position not given here)
notes: also called wild-type Par3CR3; source: synthetic peptide
Kd [4]: 53600 nM
Kd [5]: 410 nM
apparent IC50 of the block of phosphorylation of a model substrate peptide by PKCιKD-2P, in vitro kinase assay [6]: 450 nM
Kd [7]: 730 nM
Kd [8]: 470 nM

The remaining lines, values ahead:

fold change [3]: weaker
Molecule: Par3 CR3, 816-834 (from UniProt Q8TEW0) phospho-S827 Par3CR3 peptide

Kd [7]: 690 nM
Kd [8]: 970 nM
B2: Par3CR3 S827A mutant peptide (peptide, UniProt Q8TEW0 816-834, looked up)
peptide: LAFQREGFGRQAMSEKRTK
modifications: also: fluorescein label (position not given here)
notes: source: synthetic peptide
